Results on three molecules are retold here after patent US20230322924A1 (Janssen / Centocor, published 2023).

The Kd is the equilibrium constant for the complex coming apart. As usually defined, the koff is the first-order rate constant of dissociation. Higher therefore signals a short-lived complex. As usually defined, the kon is a measure of how fast the partners come together. Low readings indicate slow association, high ones fast association.

One test concerns the target rh-Integrin a4b7 (UniProt P13612 34-977; P26010 20-723, limits assumed). The test is described as follows: Biacore 8K non-specific binding test, antibody over immobilised protein. How it is done:
(§1) Non-specific binding of the lead molecule to unrelated surfaces is determined by biosensor technology (Biacore 8K). Antibody is passed over SPR surfaces coated with unrelated proteins. […] Irrelevant surfaces include negatively charged protein (Soy Trypsin Inhibitor), positively charged protein (Lysozyme and β-defensin), hydrophobic (Rh-integrin a4b7), human IgG, sticky protein (Rh-CD19). Proper controls are used in this experiment. Lead is flown over two surfaces, one is a blank and the other has a molecule directly immobilized. The response unit (RU) level is determined by subtracting the blank RU from the test surface RU. […] A response unit ≥100 predicts high risks for non-specific binding to charged/hydrophobic/IgG surfaces which would create challenges during manufacturing and translate to poor PK properties.
In general terms: SPR reads the build-up and loss of mass on a sensor chip optically.

A further test addresses T1, rh-CD19 (UniProt P15391 20-291, limits assumed).
T1 sequence (looked up): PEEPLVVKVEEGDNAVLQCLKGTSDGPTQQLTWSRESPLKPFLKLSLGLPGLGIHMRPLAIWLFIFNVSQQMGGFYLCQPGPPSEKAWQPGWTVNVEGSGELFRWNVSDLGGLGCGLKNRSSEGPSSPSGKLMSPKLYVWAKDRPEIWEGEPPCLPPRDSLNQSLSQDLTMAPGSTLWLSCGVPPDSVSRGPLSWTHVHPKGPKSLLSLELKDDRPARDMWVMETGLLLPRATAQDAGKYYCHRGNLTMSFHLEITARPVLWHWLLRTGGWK
The description is as above. As for the experimental part: as §1

For the next test, the target named is T2, B-Defensin-3.
T2 construct: also called β-defensin
T2 sequence (P81534 23-67): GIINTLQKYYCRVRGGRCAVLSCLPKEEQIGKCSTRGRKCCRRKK
The description is as above. How it is done: as §1

In a further test the target is Lysozyme. The description is as above. As for the experimental part:
as §1

In the next test the target is Human IgG. The test is described as above. As for the experimental part:
as §1

Test [1] concerns the target T3, human TMEFF2 extracellular domain (ECD) (human, UniProt Q9UIK5 41-320).
T3 construct: also called TMEFF2-ECD
T3 sequence: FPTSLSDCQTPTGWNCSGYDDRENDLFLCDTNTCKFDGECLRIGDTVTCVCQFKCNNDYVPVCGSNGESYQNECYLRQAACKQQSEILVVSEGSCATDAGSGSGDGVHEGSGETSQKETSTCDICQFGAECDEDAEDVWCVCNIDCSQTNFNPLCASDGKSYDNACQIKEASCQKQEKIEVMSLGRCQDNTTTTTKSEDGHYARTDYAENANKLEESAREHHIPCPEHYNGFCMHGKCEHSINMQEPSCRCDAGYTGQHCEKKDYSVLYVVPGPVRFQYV
The experiment in a line: KinExA solution equilibrium affinity. As for the experimental part:
Serial dilutions of human TMEFF2 extracellular domain (ECD) were prepared with a constant concentration of anti-TMEFF2 mAb in 10 mM HEPES, 150 mM NaCL, 0.05% surfactant P20, pH 7.4, 0.1% BSA, and 0.02% NaN3. The reaction mixtures were incubated at RT until the binding interactions reached equilibrium. The duration of the incubation was determined using KinExA software simulation. Beads were prepared by direct covalent immobilization of TMEFF2-ECD by amine-coupling on pre-activated beads composed of bis-acrylamide/azlactone copolymer (Pierce Biotechnology, Inc.). After incubation the samples were run on the KinExA instrument to assess free antibody in the mixture by passing the mixture though the TMEFF2-modified beads, and detecting the captured antibody using a fluorescently labeled secondary antibody. The data was fit with a 1:1 binding model using the KinExA Pro software.
For orientation: A kinetic exclusion assay measures how much of one partner remains free in solution.

For a further test, the target named is T4, N-terminal CD3ε peptide.
T4 construct: domain: N-terminal CD3ε peptide
T4 sequence (P07766 22-48): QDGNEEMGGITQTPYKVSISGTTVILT
The test is described as follows: Biacore 8K SPR, antibody captured on anti-human Ig, peptide as analyte. As for the experimental part: Kinetic rate constants were measured by SPR performed using Biacore 8K (GE Healthcare) and anti-human Fc biosensor surfaces. Anti-human immunoglobulin antibodies were covalently coupled to the surface of a CM4 sensor chip (GE Healthcare). Antibodies of interest were captured on the anti-human immunoglobulin sensor chip, followed by injection of N-terminal CD3ε peptide at various concentrations in HEPES Buffered Saline containing 0.05% surfactant P20 (Tween™ 20) and 100 ug/mL BSA. The surface was regenerated with 2 pulses injections of 30 μL of 0.8% phosphoric acid at 100 μL/min. Data reported is the difference in SPR signal between the flow cell containing the captured antibody and a reference cell without captured antibody. Additional instrumental contributions to the signal were removed by subtraction of the data from the blank injection from the reference-subtracted signal. The data were analyzed by fitting association and dissociation phases at all concentrations (global fit) with a 1:1 binding model using the Biaevaluation software (Biacore, Inc.). Data is reported as average+95% CI (Confidence Interval) which is calculated by t value for 95% CI*stdev/square root of the number of replicates.

Another test has as its target T5, Human CD33-C2-HSA (human).
T5 construct: C2 domain of human CD33 fused to HSA; also called C33W4; huCD33-C2-HSA
The experiment in a line: SPRi off-rate screen (IBIS MX96).

Test [2] has as its target T6, Human CD33 ECD-HSA (human).
T6 construct: CD33 ECD fused at the C-terminus to monomeric HSA (C58S) and a six-histidine tag; also called C33W2; huCD33 ECD-HSA
The test is described as follows: SPRi off-rate screen (IBIS MX96).

In another test the target is T7, Human CD33 full length (human, UniProt P20138 18-364).
T7 construct: also called huCD33
T7 sequence (P20138 18-364 limits assumed): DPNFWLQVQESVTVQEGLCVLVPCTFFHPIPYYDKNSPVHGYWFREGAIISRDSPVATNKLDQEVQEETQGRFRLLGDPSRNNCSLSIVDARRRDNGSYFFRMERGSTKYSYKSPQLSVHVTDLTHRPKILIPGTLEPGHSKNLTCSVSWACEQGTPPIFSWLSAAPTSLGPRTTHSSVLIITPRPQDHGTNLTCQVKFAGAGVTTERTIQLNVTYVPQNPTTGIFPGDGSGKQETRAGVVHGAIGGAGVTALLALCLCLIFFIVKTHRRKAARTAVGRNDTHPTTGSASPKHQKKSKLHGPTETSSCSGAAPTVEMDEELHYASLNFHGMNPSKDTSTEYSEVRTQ
The experiment in a line: flow cytometry on HEK293F cells expressing human CD33. In general terms: Flow cytometry measures light scatter and fluorescence of single cells or particles in a stream.

The target of the next test is T8, Cyno CD33 full length (cynomolgus monkey).
T8 construct: also called cyCD33
The test is described as follows: flow cytometry on HEK293F cells expressing cyno CD33.

The target in a further test is T9, Cyno CD33 ECD-HSA (cynomolgus monkey).
T9 construct: Cyno CD33 ECD fused to HSA and a six-histidine tag; also called C33W1
The test is described as follows: ProteOn SPR, mAb captured on anti-human Fc, antigen as analyte. How it is done:
(§2) The panel of mAbs was then further characterized for full affinity analysis as well as epitope binning. The binding of anti-CD33 mAbs to recombinant human CD33 ECD-HSA (C33W2) and cyno CD33 ECD-HSA (C33W1) was measured by ProteOn SPR (Bio-Rad). […] Different mAbs were captured on the anti-human Fc IgG surface at 0.25 or 0.5 μg/ml (160-300 RU) in vertical ligand orientation, with the 6th ligand channel as no ligand surface control. Human and cyno CD33-HSA proteins at 0.3 μM concentration in 3-fold dilution series of 5 concentrations flew in as analyte to bind to captured mAbs in the horizontal orientation. A buffer sample was also injected in the 6th channel to monitor the dissociation of captured mAb and baseline stability. […] The raw biding data were processed by double referencing after subtracting the response data from: 1) the inter-spot to correct for the non-specific interactions between the Ag and the empty chip surface; 2) the buffer channel to correct for baseline drifting due to the dissociation of captured mAb surface over time. The processed data at all antigen concentrations for each mAb were globally fit to a 1:1 simple Langmuir binding model to extract estimates of the kinetic (kₒₙ, koff) and affinity (Kd) constants.

The target of test [3] is T6, Human CD33 ECD-HSA. The description is as above. As for the experimental part: as §2
Test [4] concerns the target T10, TMEW1 (TMEFF2-FL-ECD-His-Avitag) (human, UniProt Q9UIK5 41-320).
T10 construct: Human TMEFF2 ECD with C-terminal G3S, 6xHis tag and Avi-tag, all in the entry; also called TMEFF2 ECD
T10 sequence: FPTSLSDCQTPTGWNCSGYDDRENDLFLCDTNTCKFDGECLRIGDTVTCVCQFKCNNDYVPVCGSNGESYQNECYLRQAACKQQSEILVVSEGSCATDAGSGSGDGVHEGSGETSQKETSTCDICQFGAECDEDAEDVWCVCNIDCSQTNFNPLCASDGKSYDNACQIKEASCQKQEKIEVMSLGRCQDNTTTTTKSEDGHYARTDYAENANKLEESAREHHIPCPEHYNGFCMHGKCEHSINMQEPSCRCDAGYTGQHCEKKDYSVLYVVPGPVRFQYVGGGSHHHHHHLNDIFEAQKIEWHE
The test is described as follows: Biacore 8K SPR, mAb captured on anti-human Fc, single cycle kinetics. How it is done: The binding of anti-TMEFF2 mAbs to human TMEFF2 ECD was measured by Biacore 8K SPR. The format of the assay was to capture the mAbs using a high density anti-human Fc surface, then inject human TMEFF2 concentration titration using a single cycle kinetics method. […] The mAbs were captured on the anti-human Fc IgG surface at 0.5 μg/ml (˜200-300 RU) on flow cell 2. The running buffer was then changed to HBSP+100 ug/ml BSA. TMEFF2 ECD at 30 nM concentration in 3-fold dilution series was injected from low to high concentration using single cycle kinetics method. The off-rate was monitored 30 minutes after the last or highest concentration injection and then the surface was regenerated using 0.8% phosphoric acid (Bio-Rad). A buffer blank run, capturing the same mAbs and using the same conditions of sample run was also completed. The raw data were processed by subtracting two sets of reference data from the response data: 1) reference flow cell 1 subtracted from sample flow cell 2 and 2) buffer blank run from experimental run. The processed data at all concentrations for each mAb were globally fit to a 1:1 simple Langmuir binding model to extract estimates of the kinetic (kon, koff) and affinity (KD) constants.

Chain of Lysozyme (P00698 19-147): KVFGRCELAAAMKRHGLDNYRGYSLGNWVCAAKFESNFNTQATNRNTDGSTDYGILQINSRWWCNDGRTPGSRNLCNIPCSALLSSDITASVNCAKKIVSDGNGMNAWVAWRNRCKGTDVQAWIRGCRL

B1: TMCB150 (bispecific antibody, human IgG4 S228P, kappa, lambda, F234A L235A)
heavy 1: not shown
light 1: not shown
heavy 2: QVQLQQSGPRLVRPSQTLSLTCAISGDSVFNNNAAWSWIRQSPSRGLEWLGRTYYRSKWLYDYAVSVKSRITVNPDTSRNQFTLQLNSVTPEDTALYYCARGYSSSFDYWGQGTLVTVSSASTKGPSVFPLAPCSRSTSESTAALGCLVKDYFPEPVTVSWNSGALTSGVHTFPAVLQSSGLYSLSSVVTVPSSSLGTKTYTCNVDHKPSNTKVDKRVESKYGPPCPPCPAPEAAGGPSVFLFPPKPKDTLMISRTPEVTCVVVDVSQEDPEVQFNWYVDGVEVHNAKTKPREEQFNSTYRVVSVLTVLHQDWLNGKEYKCKVSNKGLPSSIEKTISKAKGQPREPQVYTLPPSQEEMTKNQVSLTCLVKGFYPSDIAVEWESNGQPENNYKTTPPVLDSDGSFLLYSKLTVDKSRWQEGNVFSCSVMHEALHNHYTQKSLSLSLGK
light 2: QSALTQPASVSGSPGQSITISCTGTSSNIGTYKFVSWYQQHPDKAPKVLLYEVSKRPSGVSSRFSGSKSGNTASLTISGLQAEDQADYHCVSYAGSGTLLFGGGTKLTVLGQPKAAPSVTLFPPSSEELQANKATLVCLISDFYPGAVTVAWKADSSPVKAGVETTTPSKQSNNKYAASSYLSLTPEQWKSHRSYSCQVTHEGSTVEKTVAPTECS
notes: IgG4 PAA bispecific by Fab-arm exchange; also called TMEB762 x CD3B376
As for B1, the “response units (RU)” value worked out at 0 RU with rh-Integrin a4b7; 3.4 RU with rh-CD19; 6.4 RU with B-Defensin-3; 4.2 RU with Lysozyme; 7.5 RU in the test with Human IgG. Moreover, the Kd turned out to be 0.0636 nM in [1] and 28.7 nM in the test with N-terminal CD3ε peptide. Also, the koff with N-terminal CD3ε peptide stood at 0.00103 s⁻¹. Also, the kon in the test with N-terminal CD3ε peptide came to 35700 M⁻¹ s⁻¹.

B2: C33B912 (antibody, V domains shown)
VH: EVQLVESGGGLVQPGRSLRLSCAASGFTFDDYAMHWVRQAPGKGLEWVSGIGWSGGSIVYADSVKGRFTISRDNAKNSLYLQMNSLRAEDTALYYCAKDSPYGDFFDYWGQGTLVTVSS
VL: DIVMTQSPDSLAVSLGERATINCKSSQTVFYSSNNKNYLAWYQQKPGQPPKLLISWASTRKSGVPDRFSGSGSGTDFTLTVSSLQAEDVAVYYCQHYYSTPYTFGQGTKLEIK
notes: OMNIMouse-derived anti-CD33 mAb; also called C33H252/C33L118; C33F550
Turning to B2, in the test with Human CD33-C2-HSA, the off-rate constant (koff) was 6.68e-05 s⁻¹. For the same molecule, in the test with Human CD33 ECD-HSA [2], the koff came out at 1.29e-05 s⁻¹. In the test with Human CD33 full length, the “MFI at 0 nM (background)” value came out at 150 MFI, the “MFI at 0.6 nM” value turned out to be 15700 MFI, the “MFI at 6 nM” value came out at 101000 MFI and the “MFI at 60 nM” value worked out at 237000 MFI. In the test with Cyno CD33 full length, the “MFI at 0 nM (background)” value came to 125 MFI, the “MFI at 0.6 nM” value came to 1730 MFI, the “MFI at 6 nM” value was determined as 7270 MFI and the “MFI at 60 nM” value is 15100 MFI. In the test with Cyno CD33 ECD-HSA, the Kd was 0.433 nM, the koff was determined as 0.00065 s⁻¹ and the on-rate constant (kon) is 1.5e+06 M⁻¹ s⁻¹. In the test with Human CD33 ECD-HSA [3], this molecule registered a Kd of 0.0302 nM, a dissociation rate constant (koff) of 4.29e-05 s⁻¹ and a kon of 1.42e+06 M⁻¹ s⁻¹.

B3: TMEB762 (antibody, human IgG4 S228P, kappa, F234A L235A, V domains shown)
VH: EVQLLESGGGLVQPGGSLRLSCAASGFTFSSYSMSWVRQAPGKGLEWVSVISGSGGFTDYADSVKGRFTISRDNSKNTLYLQMNSLRAEDTAVYYCARMPLNSPHDYWGQGTLVTVSS
VL: DIQMTQSPSSLSASVGDRVTITCRASQGIRNDLGWYQQKPGKAPKLLIYAASSLQSGVPSRFSGSGSGTDFTLTISSLQPEDFATYYCLQDYNYPLTFGGGTKVEIKR
notes: IgG4 PAA anti-TMEFF2; re-engineered variant of TMEB675; also called TMEH459/DL3L129
For B3, the “response units (RU)” value in the test with rh-Integrin a4b7 came to 0 RU; with rh-CD19, 3.3 RU; in the test with B-Defensin-3 it was 4.1 RU; with Lysozyme, 4.6 RU; with Human IgG, 8.4 RU. Besides, the Kd in test [1] is 0.0461 nM; in [4] it was 0.32 nM. The koff in test [4] turned out to be 0.000174 s⁻¹. For the same molecule, in [4], the kon worked out at 541000 M⁻¹ s⁻¹.
